In PMC10079538, “Unusual PDGFRB fusion reveals novel mechanism of kinase activation in Ph-like B-ALL” (Leukemia, 2023):

Target: the molecule itself
Assay: SEC; elution of the recombinant protein purified from insect cells; molecular weight from the elution

B1: recombinant truncated PDGFRB (PDGFRB^584-1106) (domain or fragment, human, UniProt P09619 584-1106, looked up)
chain: PMQLPYDSTWELPRDQLVLGRTLGSGAFGQVVEATAHGLSHSQATMKVAVKMLKSTARSSEKQALMSELKIMSHLGPHLNVVNLLGACTKGGPIYIITEYCRYGDLVDYLHRNKHTFLQHHSDKRRPPSAELYSNALPVGLPLPSHVSLTGESDGGYMDMSKDESVDYVPMLDMKGDVKYADIESSNYMAPYDNYVPSAPERTCRATLINESPVLSYMDLVGFSYQVANGMEFLASKNCVHRDLAARNVLICEGKLVKICDFGLARDIMRDSNYISKGSTFLPLKWMAPESIFNSLYTTLSDVWSFGILLWEIFTLGGTPYPELPMNEQFYNAIKRGYRMAQPAHASDEIYEIMQKCWEEKFEIRPPFSQLVLLLERLLGEGYKKKYQQVDEEFLRSDHPAILRSQARLPGFHGLRSPLDTSSVLYTAVQPNEGDNDYIIPLPDPKPEVADEGPLEGSPSLASSTLNEVNTSSTISCDSPLEPQDEPEPEPQLELQVEPEPELEQLPDSGCPAPRAEAEDSFL
notes: PDGFRB, human, residues 584-1106; truncated form encoded by the CD74^intr::PDGFRB fusion, lacks the juxtamembrane region; methods are in the supplementary file; also called truncated PDGFRB^584-1106; source: insect cells, expressed and purified
  stoichiometry N: 2
